# Experimental data taken from the supplement of paper PMC10724198.
# ± gives the standard deviation of the averaged measurements.
# System: Saccharomyces cerevisiae
# Experiment: protein stability index of tFT-peptide fusion (C-terminal peptide) (PSI (0-1 scale)); higher = more stable (slower turnover)
# Details: genetic background: wild type; temperature: 30 C
# 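Note: PSI is a weighted mean of sequencing reads over stability bins, variants kept only with over 10 reads, mCherry proximal and sfGFP distal, peptide attached via GGGS linker.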
row,Sequence,protein stability index
1,SFPRSHPPPFPP,0.674 ± 0.012
2,MGGYLFLHVGYV,0.614 ± 0.062
3,SANCQQSRMFIT,0.623 ± 0.044
4,GLPPPSPPVPLL,0.683 ± 0.043
5,VDRAFVWYLRDL,0.695 ± 0.0076
6,YRQIIPSFTLGL,0.715 ± 0.036
7,LPLPHPRLPPRP,0.684 ± 0.049
8,GCGVWRVLRVLR,0.642 ± 0.027
9,FHFPHPFLPFPS,0.666 ± 0.12
10,VPPPTRRTPPAP,0.734 ± 0.052
11,PLLPSGIPLFLS,0.574 ± 0.016
12,TFLYLSGRVVGL,0.651 ± 0.013
13,PQLNRKAATPQN,0.641 ± 0.069
14,YKNKKKKKNNKK,0.661 ± 0.019
15,SIPSIPTLHENT,0.67593 ± 0.00066
16,VPVRLRSGGVSP,0.66 ± 0.058
17,LRCSKRNKSMGQ,0.648 ± 0.048
18,LSVAFFILRVPL,0.573 ± 0.071
19,ADSGAHTISTVC,0.663 ± 0.01
20,ENEKKKKNKNKN,0.7 ± 0.049
21,DERVSAQDFLEG,0.6873 ± 0.003
22,CELCVCKHGGKG,0.702 ± 0.013
23,PLPEQIEATTAS,0.6921 ± 0.00086
24,AGGGLGGVGDVV,0.681 ± 0.052
25,SADGIVSQVTCL,0.693 ± 0.031
26,KEGKGRGDGGRE,0.697 ± 0.018

row,Sequence,protein stability index
1,VIEIGEYSGNGK,0.707 ± 0.046
2,SLPPLPSPPCPP,0.712 ± 0.044
3,GGGWDVRGGCVG,0.724 ± 0.0089
4,GAGAQRGCRSGG,0.6878 ± 0.0034
5,KGGREARRERRD,0.672 ± 0.036
6,RGFWRGGVVRGG,0.73 ± 0.021
7,RTAGQRLIRVNR,0.744 ± 0.075
8,IRKEKREKKSSH,0.702 ± 0.069
9,GYPASGVLIVFF,0.512 ± 0.026
10,RAVFNMSSPSHI,0.711 ± 0.077
11,LPSPPPPRSLLP,0.6657 ± 0.0016
12,SLLPILFPPPPF,0.7147 ± 0.0046
13,PRYCVQQNPQDR,0.722 ± 0.044
14,FIFHFLMFPGPL,0.56 ± 0.013
15,EGKWCGVKRGVY,0.627 ± 0.033
16,VLFGSVSCCLLW,0.686 ± 0.043
17,LSRLPPTLPRTP,0.699 ± 0.18
18,SPLPPTPPPISP,0.6721 ± 0.00083
19,SPSLPHAPSRPP,0.607 ± 0.06
20,ATKKRKKKNKQT,0.756 ± 0.11
21,PPPPPPPPRLTF,0.698 ± 0.094
22,ERRELSAHVYLD,0.665 ± 0.1
23,HGVVGVFGLVSG,0.664 ± 0.0075
24,SLILRKDKKKKK,0.69 ± 0.01
25,KRVSGSEQDIAT,0.6561 ± 0.0026
26,AGHTTVTNPLPQ,0.738 ± 0.079

row,Sequence,protein stability index
1,NKKKNLRYKHRI,0.643 ± 0.1
2,SRVVAGLWRGAV,0.671 ± 0.18
3,SCHPDPTRKSPN,0.7159 ± 0.0035
4,HPYVTSHGRPLR,0.677 ± 0.024
5,FWGGRGGVGLAV,0.601 ± 0.1
6,CLRRGGAGEGAS,0.687 ± 0.0037
7,GARGWTVWVAGL,0.632 ± 0.049
8,FAWSPPACFIPS,0.654 ± 0.011
9,PPILLAYITPPM,0.656 ± 0.0076
10,PPEPSYPPLPPR,0.717 ± 0.011
11,PPSTSPTLTSAR,0.722 ± 0.016
12,VRARRSSREVNY,0.755 ± 0.05
13,TYQNAKAEPTRV,0.671 ± 0.038
14,LAIIKLRGDLSY,0.6646 ± 0.0019
15,VCGLRFLLFGCG,0.63 ± 0.021
16,TNYWDRGSIQPK,0.668 ± 0.021
17,ERIGVEERKGLE,0.658 ± 0.021
18,SRDRRASPPLPP,0.722 ± 0.049
19,KKKKKKKKKKRK,0.685 ± 0.01
20,RRGHMTRFTHSR,0.692 ± 0.077
21,VGPVGSVGVGGR,0.654 ± 0.013
22,WWGGGGGMQGVR,0.674 ± 0.0096
23,CAADYRRHLQRP,0.669 ± 0.026
24,VRGVGGLWVGAV,0.684 ± 0.012
25,RSPTGSPGRSFS,0.687 ± 0.025
26,QRGRGGRHVTDI,0.71 ± 0.069

row,Sequence,protein stability index
1,SPPSPPPSPPTL,0.77 ± 0.092
2,LPRPLTIKQVAG,0.56 ± 0.021
3,VEAFIVDETRVV,0.6984 ± 0.0064
4,IKKYNEKRITKV,0.66 ± 0.045
5,AKLFSEGLQMHH,0.729 ± 0.049
6,SPRRVAVAGETS,0.68 ± 0.093
7,IWLAFCTLRPVS,0.591 ± 0.027
8,VGGGVGGRDGAS,0.659 ± 0.051
9,RAGFSEPCGSFS,0.668 ± 0.046
10,RHRGVYMDRGCL,0.663 ± 0.053
11,QKKKKNNKRQKQ,0.588 ± 0.023
12,WVTLGMGGECMR,0.818 ± 0.14
13,LPSPTTPRSPPP,0.729 ± 0.1
14,PLISYIEGGPTS,0.674 ± 0.02
15,RPSHPPHLPPPV,0.6753 ± 0.0044
16,GSVFWVCGFFRV,0.559 ± 0.034
17,RAPCSLDFRGNA,0.758 ± 0.12
18,LIQHVTKLTPFF,0.694 ± 0.012
19,EWVLRTLVDTNW,0.728 ± 0.0075
20,PSHPAPGPSTRQ,0.673 ± 0.032
21,WRDGSLKIKCML,0.756 ± 0.21
22,WCGQVFWCVKES,0.699 ± 0.039
23,GYLVECKRLCVW,0.588 ± 0.024
24,IPQTITLPHSNP,0.694 ± 0.088
25,ALSPPPSLRLPF,0.7388 ± 0.0023
26,QERRDQGRKGQD,0.673 ± 0.011

row,Sequence,protein stability index
1,PPPLAPPTSLRF,0.715 ± 0.075
2,SLPPPLPPPAPP,0.614 ± 0.04
3,MRKGKGGGPRRR,0.699 ± 0.023
4,NNANDKKNKRKK,0.664 ± 0.044
5,PPVPPPLPYLPP,0.624 ± 0.031
6,FVWRVGGVRRGV,0.758 ± 0.09
7,CVPPSFRPSLFD,0.75 ± 0.015
8,HINVAVAKYSRQ,0.697 ± 0.047
9,LCRPNELPDGLP,0.664 ± 0.039
10,PSPLPPPAPHPL,0.752 ± 0.26
11,GCVDRSSHNALC,0.632 ± 0.037
12,CVSRRRGGEIGG,0.655 ± 0.044
13,IYRTYEAKPGHP,0.69 ± 0.12
14,FRDPPSILTSDT,0.621 ± 0.017
15,LFDRRDTSTLLL,0.707 ± 0.032
16,WILDKECFKECD,0.654 ± 0.046
17,PPPYDPPRPLPR,0.7209 ± 0.0027
18,LLSLLQLPASAS,0.605 ± 0.03
19,PEKRDIQSGIVD,0.696 ± 0.024
20,RPPPAAPLHITS,0.714
21,DRRRGMVRKTHV,0.659 ± 0.019
22,EQRRAGPAEVTK,0.694 ± 0.04
23,RGRPEVRPPGHY,0.707 ± 0.03
24,SCLATDSWLAFV,0.665 ± 0.058
25,PPPPPLLPPSLR,0.671 ± 0.073
26,CKHPAWFQPRVG,0.618 ± 0.044

row,Sequence,protein stability index
1,FQHFGAPPTWHE,0.742 ± 0.093
2,GFRGILFPVGRS,0.736 ± 0.03
3,PLPRAPSPPPPP,0.694 ± 0.023
4,TTTFPFGRLVLS,0.68 ± 0.028
5,DPRPHPPFARSP,0.699 ± 0.026
6,VVRLGSNYYGGT,0.756 ± 0.004
7,GRGVDGRSGCLL,0.6732 ± 0.0029
8,WAASGGAARYAP,0.684 ± 0.037
9,TSPLSPSGPQSS,0.86 ± 0.14
10,VWCWCGWGVWGL,0.629 ± 0.063
11,AVVVCGGGGWWA,0.687 ± 0.068
12,IPPLTKRPAPGG,0.684 ± 0.099
13,MYAWPISPRPLL,0.738 ± 0.052
14,RLPAFSSDLLRH,0.704 ± 0.046
15,VVCVGSEVGEGG,0.7243 ± 0.0045
16,ALLMDENTRVLF,0.649 ± 0.051
17,KRETKSKGQAQA,0.602 ± 0.042
18,AFFLDKASQLES,0.694 ± 0.05
19,APAPPPSPPLPS,0.68 ± 0.0081
20,SGHGGAARRPAP,0.733 ± 0.08
21,GVRGALGCAGRV,0.679 ± 0.02
22,PPLLLRFLTIHL,0.571 ± 0.027
23,VIGSKQERRAEK,0.6905 ± 0.0016
24,PPPPPPAASSSP,0.692 ± 0.047
25,QRKGNLTKTEPV,0.676 ± 0.1
26,SSVGLRTRRTAR,0.638 ± 0.081

row,Sequence,protein stability index
1,MGDGRRMDGVWG,0.6 ± 0.03
2,GPVLELWLGRSR,0.775 ± 0.04
3,PCSSFPTFPRRL,0.715 ± 0.017
4,KGSWTLGDGLVW,0.644 ± 0.013
5,PFPSPSPLARLP,0.704 ± 0.054
6,SLTGYAGESIRF,0.774 ± 0.056
7,VGEGWGAMIMQE,0.737 ± 0.038
8,VGSSSRSLFWCF,0.689 ± 0.04
9,QGQAEREAERRS,0.6732 ± 0.0059
10,PACSPLLAARVT,0.711 ± 0.061
11,PPPLRPPPPPLP,0.645 ± 0.021
12,LPCRRPTPPFPQ,0.752 ± 0.024
13,RLLGSGHCLLYI,0.613 ± 0.047
14,RARFSASCRYRV,0.671 ± 0.048
15,VRGGVSWGMRGG,0.634 ± 0.089
16,YIIVSQRENRRQ,0.758 ± 0.095
17,SPPPPPPARCPS,0.592 ± 0.045
18,LSSLLPFPPLPC,0.685 ± 0.082
19,NIKHTDKPNHIN,0.609 ± 0.011
20,VLCLRSNRHGVF,0.698 ± 0.015
21,SPPPPPPPHSPD,0.654 ± 0.071
22,AVGWQRQTEQRR,0.684 ± 0.088
23,FLPRGPLPPSPF,0.595 ± 0.026
24,GPVSVTFGGTYC,0.678 ± 0.046
25,LLRRFSLLPPPL,0.667 ± 0.035
26,PLGQVLRVSSDF,0.75473 ± 0.00037

row,Sequence,protein stability index
1,PLSPSLPNPCSL,0.706 ± 0.0079
2,PPPPPPFLPRLP,0.721 ± 0.14
3,TFYLHSLLPTSF,0.6913 ± 0.0024
4,GTRGLDTPPGRD,0.663 ± 0.067
5,CFFVRLSSFYCS,0.63 ± 0.0089
6,NKKKKENTKKRK,0.721 ± 0.18
7,CSTIRDFTIYPP,0.694 ± 0.11
8,TGISPWPPSERR,0.808 ± 0.19
9,PGGAGKAYGSRL,0.707 ± 0.012
10,SPLALATPLSDP,0.699 ± 0.039
11,EWEKKKRGNTRK,0.642 ± 0.022
12,PPLLPLLCPHSL,0.738 ± 0.016
13,SAPPDVAPLFSP,0.74 ± 0.053
14,CCGHEFEIYNWV,0.786 ± 0.1
15,SLLDPLLPLLLF,0.634 ± 0.017
16,SDKRMGSLQMSS,0.712 ± 0.033
17,AISVCCFLCEFF,0.509 ± 0.023
18,PFTHRTYREGRT,0.676 ± 0.081
19,PSVYAASPPLPP,0.68 ± 0.03
20,PPPGCRPSPPLP,0.683 ± 0.069
